{"source": "patent US20140057284A1", "about": "“PHOTOLUMINESCENT MOLECULAR COMPLEX AND METHOD FOR DETERMINING OF THE CONCENTRATION OF SAID MOLECULAR COMPLEX” (priority 2011, published 2014)", "key": {"[1]": {"molecular_target": "ABL (Homo sapiens, UniProt P00519)", "sequence (P00519 whole entry, species assumed)": "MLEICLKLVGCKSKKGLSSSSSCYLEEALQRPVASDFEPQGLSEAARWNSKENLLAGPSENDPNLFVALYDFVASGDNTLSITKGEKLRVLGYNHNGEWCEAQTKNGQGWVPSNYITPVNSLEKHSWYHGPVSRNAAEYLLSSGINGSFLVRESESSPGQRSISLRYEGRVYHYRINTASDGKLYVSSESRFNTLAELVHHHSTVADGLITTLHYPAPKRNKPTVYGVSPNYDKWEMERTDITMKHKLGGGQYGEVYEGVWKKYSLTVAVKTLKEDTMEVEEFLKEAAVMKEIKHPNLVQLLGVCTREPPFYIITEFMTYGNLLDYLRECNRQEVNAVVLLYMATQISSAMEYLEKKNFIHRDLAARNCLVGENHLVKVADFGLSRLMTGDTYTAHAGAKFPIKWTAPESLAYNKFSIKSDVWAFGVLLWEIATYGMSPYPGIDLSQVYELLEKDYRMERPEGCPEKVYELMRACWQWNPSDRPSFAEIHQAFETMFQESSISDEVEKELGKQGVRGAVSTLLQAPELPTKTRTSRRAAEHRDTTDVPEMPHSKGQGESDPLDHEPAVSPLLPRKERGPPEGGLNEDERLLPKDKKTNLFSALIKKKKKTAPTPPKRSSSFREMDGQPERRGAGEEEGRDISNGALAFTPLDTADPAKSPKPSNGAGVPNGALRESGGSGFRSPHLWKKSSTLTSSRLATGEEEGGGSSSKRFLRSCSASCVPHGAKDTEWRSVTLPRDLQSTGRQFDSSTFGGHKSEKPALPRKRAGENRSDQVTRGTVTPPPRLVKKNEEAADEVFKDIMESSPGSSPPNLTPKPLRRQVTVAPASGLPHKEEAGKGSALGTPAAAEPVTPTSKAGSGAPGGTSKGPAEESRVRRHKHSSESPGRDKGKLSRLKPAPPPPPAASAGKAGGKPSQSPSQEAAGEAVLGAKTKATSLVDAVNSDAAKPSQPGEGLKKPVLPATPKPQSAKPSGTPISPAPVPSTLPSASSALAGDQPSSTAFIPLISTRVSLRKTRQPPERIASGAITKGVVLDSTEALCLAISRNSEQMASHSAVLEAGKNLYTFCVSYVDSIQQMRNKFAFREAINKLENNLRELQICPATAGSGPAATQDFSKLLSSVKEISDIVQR", "test": "biochemical", "settings": "read-out: Percentages of residual activities of the kinase reaction", "description": "(§1) Selectivity testing (Table 2) was performed on the commercial basis at the Division of Signal Transduction Therapy, University of Dundee. ATP concentrations that were used in testing were close to the Km value of the kinase."}, "[2]": {"molecular_target": "ASK1 (Homo sapiens, UniProt Q99683)", "test": "biochemical", "settings": "read-out: Percentages of residual activities of the kinase reaction", "description": "as §1"}, "[3]": {"molecular_target": "BRSK1 (Homo sapiens, UniProt Q8TDC3)", "test": "biochemical", "settings": "read-out: Percentages of residual activities of the kinase reaction", "description": "as §1"}, "[4]": {"molecular_target": "BRSK2 (Homo sapiens, UniProt Q8IWQ3)", "sequence (Q8IWQ3 whole entry, species assumed)": "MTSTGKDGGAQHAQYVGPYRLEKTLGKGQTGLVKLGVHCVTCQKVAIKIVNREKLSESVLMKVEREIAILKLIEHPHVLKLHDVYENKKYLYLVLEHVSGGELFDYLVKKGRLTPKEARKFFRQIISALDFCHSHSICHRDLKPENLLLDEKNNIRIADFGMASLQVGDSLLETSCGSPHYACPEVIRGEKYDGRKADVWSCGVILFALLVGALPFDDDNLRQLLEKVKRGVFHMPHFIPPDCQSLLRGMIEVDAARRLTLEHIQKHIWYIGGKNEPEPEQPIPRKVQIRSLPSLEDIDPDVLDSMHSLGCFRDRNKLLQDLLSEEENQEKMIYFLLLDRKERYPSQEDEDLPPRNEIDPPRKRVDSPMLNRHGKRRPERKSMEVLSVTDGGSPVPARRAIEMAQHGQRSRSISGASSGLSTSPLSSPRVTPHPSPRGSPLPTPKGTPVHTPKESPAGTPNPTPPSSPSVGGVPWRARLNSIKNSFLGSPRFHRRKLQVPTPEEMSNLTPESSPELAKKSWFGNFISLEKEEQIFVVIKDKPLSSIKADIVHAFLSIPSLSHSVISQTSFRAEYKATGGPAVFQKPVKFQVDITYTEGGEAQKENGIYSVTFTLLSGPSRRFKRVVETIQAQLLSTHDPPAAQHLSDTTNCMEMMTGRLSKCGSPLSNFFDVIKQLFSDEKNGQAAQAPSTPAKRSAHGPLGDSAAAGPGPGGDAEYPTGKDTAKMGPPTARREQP", "test": "biochemical", "settings": "read-out: Percentages of residual activities of the kinase reaction", "description": "as §1"}, "[5]": {"molecular_target": "BTK (Homo sapiens, UniProt Q06187)", "test": "biochemical", "settings": "read-out: Percentages of residual activities of the kinase reaction", "description": "as §1"}, "[6]": {"molecular_target": "CAMKKb (Homo sapiens, UniProt Q96RR4)", "sequence (Q96RR4 whole entry, species assumed)": "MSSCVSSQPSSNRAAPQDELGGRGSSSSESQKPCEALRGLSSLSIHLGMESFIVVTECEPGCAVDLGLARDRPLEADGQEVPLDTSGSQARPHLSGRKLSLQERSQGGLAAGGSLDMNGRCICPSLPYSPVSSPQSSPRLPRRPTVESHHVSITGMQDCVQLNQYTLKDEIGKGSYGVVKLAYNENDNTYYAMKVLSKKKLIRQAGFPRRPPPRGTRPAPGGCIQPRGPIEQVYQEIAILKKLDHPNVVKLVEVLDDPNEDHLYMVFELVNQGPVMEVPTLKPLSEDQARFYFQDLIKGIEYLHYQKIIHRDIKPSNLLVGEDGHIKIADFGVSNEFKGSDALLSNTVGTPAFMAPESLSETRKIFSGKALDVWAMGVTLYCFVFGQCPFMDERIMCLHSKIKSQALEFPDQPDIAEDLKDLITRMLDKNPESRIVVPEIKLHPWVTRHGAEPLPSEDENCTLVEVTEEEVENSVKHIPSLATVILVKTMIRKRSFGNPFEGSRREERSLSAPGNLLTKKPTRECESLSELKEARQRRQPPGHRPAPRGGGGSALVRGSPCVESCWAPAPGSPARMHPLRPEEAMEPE", "test": "biochemical", "settings": "read-out: Percentages of residual activities of the kinase reaction", "description": "as §1"}, "[7]": {"molecular_target": "CDK2-Cyclin A (Homo sapiens, UniProt P24941)", "test": "biochemical", "settings": "read-out: Percentages of residual activities of the kinase reaction", "description": "as §1"}, "[8]": {"molecular_target": "CHK1 (Homo sapiens, UniProt O14757)", "sequence (O14757 whole entry, species assumed)": "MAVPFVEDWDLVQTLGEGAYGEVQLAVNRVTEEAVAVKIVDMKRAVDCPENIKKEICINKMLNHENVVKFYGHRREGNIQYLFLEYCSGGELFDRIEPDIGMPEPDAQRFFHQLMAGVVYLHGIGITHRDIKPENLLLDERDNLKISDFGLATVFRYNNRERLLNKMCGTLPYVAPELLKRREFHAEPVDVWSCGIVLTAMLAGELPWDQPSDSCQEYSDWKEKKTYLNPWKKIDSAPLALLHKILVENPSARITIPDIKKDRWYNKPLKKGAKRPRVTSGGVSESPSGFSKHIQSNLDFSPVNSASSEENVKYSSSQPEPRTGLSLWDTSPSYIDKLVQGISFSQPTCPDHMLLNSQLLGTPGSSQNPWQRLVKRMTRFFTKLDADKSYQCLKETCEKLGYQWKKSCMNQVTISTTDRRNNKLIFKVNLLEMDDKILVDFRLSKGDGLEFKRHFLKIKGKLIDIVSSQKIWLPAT", "test": "biochemical", "settings": "read-out: Percentages of residual activities of the kinase reaction", "description": "as §1"}, "[9]": {"molecular_target": "DYRK1A (Homo sapiens, UniProt Q13627)", "test": "biochemical", "settings": "read-out: Percentages of residual activities of the kinase reaction", "description": "as §1"}, "[10]": {"molecular_target": "DYRK2 (Homo sapiens, UniProt Q92630)", "test": "biochemical", "settings": "read-out: Percentages of residual activities of the kinase reaction", "description": "as §1"}, "[11]": {"molecular_target": "EPH-B4 (Homo sapiens, UniProt P54760)", "test": "biochemical", "settings": "read-out: Percentages of residual activities of the kinase reaction", "description": "as §1"}, "[12]": {"molecular_target": "FGF-R1 (Homo sapiens, UniProt P11362)", "test": "biochemical", "settings": "read-out: Percentages of residual activities of the kinase reaction", "description": "as §1"}, "[13]": {"molecular_target": "HER4 (Homo sapiens, UniProt Q15303)", "test": "biochemical", "settings": "read-out: Percentages of residual activities of the kinase reaction", "description": "as §1"}, "[14]": {"molecular_target": "HIPK2 (Homo sapiens, UniProt Q9H2X6)", "test": "biochemical", "settings": "read-out: Percentages of residual activities of the kinase reaction", "description": "as §1"}, "[15]": {"molecular_target": "IGF-1R (Homo sapiens, UniProt P08069)", "test": "biochemical", "settings": "read-out: Percentages of residual activities of the kinase reaction", "description": "as §1"}, "[16]": {"molecular_target": "IR (Homo sapiens, UniProt P06213)", "test": "biochemical", "settings": "read-out: Percentages of residual activities of the kinase reaction", "description": "as §1"}, "[17]": {"molecular_target": "JNK3 (Homo sapiens, UniProt P53779)", "test": "biochemical", "settings": "read-out: Percentages of residual activities of the kinase reaction", "description": "as §1"}, "[18]": {"molecular_target": "MARK4 (Homo sapiens, UniProt Q96L34)", "test": "biochemical", "settings": "read-out: Percentages of residual activities of the kinase reaction", "description": "as §1"}, "[19]": {"molecular_target": "MELK (Homo sapiens, UniProt Q14680)", "sequence (Q14680 whole entry, species assumed)": "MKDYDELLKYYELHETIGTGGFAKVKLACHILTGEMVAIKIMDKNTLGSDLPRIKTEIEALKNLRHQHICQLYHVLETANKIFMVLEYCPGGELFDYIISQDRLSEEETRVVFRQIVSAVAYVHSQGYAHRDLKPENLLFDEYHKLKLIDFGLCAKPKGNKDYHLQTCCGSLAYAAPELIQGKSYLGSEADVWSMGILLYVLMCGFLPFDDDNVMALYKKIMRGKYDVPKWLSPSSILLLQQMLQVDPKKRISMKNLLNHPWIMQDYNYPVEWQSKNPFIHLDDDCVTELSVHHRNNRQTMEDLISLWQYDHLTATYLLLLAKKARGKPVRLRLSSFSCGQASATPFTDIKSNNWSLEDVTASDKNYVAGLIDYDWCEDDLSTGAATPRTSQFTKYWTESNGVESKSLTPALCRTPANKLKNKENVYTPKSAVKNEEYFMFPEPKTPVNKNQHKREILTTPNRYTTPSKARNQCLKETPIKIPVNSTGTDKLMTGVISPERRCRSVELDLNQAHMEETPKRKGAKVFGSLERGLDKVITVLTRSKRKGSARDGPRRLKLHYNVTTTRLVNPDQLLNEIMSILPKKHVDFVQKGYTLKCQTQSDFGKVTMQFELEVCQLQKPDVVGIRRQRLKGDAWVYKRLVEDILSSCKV", "test": "biochemical", "settings": "read-out: Percentages of residual activities of the kinase reaction", "description": "as §1"}, "[20]": {"molecular_target": "MINK1 (Homo sapiens, UniProt Q8N4C8)", "test": "biochemical", "settings": "read-out: Percentages of residual activities of the kinase reaction", "description": "as §1"}, "[21]": {"molecular_target": "MKK1 (Homo sapiens, UniProt Q02750)", "test": "biochemical", "settings": "read-out: Percentages of residual activities of the kinase reaction", "description": "as §1"}, "[22]": {"molecular_target": "MLK3 (Homo sapiens, UniProt Q16584)", "sequence (Q16584 whole entry, species assumed)": "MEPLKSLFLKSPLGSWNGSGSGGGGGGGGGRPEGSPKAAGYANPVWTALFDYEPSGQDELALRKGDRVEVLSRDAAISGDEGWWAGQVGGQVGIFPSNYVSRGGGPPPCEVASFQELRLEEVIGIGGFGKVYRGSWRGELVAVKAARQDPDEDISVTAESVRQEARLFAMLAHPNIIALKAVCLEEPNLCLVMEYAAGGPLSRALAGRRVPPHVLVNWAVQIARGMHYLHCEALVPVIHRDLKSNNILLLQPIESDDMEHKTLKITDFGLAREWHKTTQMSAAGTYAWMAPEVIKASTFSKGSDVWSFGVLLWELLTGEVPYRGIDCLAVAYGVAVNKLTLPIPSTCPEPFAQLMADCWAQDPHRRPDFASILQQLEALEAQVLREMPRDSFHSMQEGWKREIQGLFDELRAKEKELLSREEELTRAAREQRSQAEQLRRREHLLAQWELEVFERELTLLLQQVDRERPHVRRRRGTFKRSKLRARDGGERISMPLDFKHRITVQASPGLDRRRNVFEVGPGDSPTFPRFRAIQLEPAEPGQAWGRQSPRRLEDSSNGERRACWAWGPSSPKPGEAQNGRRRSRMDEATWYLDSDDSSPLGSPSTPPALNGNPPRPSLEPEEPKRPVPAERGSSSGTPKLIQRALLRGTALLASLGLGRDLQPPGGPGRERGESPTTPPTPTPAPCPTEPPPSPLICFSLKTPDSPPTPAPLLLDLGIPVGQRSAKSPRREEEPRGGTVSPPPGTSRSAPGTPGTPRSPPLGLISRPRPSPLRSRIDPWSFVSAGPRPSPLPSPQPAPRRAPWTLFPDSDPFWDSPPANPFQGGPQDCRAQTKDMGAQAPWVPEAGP", "test": "biochemical", "settings": "read-out: Percentages of residual activities of the kinase reaction", "description": "as §1"}, "[23]": {"molecular_target": "MPSK1 (Homo sapiens, UniProt O75716)", "test": "biochemical", "settings": "read-out: Percentages of residual activities of the kinase reaction", "description": "as §1"}, "[24]": {"molecular_target": "NEK2a (Homo sapiens, UniProt P51955)", "test": "biochemical", "settings": "read-out: Percentages of residual activities of the kinase reaction", "description": "as §1"}, "[25]": {"molecular_target": "PAK4 (Homo sapiens, UniProt O96013)", "sequence (O96013 whole entry, species assumed)": "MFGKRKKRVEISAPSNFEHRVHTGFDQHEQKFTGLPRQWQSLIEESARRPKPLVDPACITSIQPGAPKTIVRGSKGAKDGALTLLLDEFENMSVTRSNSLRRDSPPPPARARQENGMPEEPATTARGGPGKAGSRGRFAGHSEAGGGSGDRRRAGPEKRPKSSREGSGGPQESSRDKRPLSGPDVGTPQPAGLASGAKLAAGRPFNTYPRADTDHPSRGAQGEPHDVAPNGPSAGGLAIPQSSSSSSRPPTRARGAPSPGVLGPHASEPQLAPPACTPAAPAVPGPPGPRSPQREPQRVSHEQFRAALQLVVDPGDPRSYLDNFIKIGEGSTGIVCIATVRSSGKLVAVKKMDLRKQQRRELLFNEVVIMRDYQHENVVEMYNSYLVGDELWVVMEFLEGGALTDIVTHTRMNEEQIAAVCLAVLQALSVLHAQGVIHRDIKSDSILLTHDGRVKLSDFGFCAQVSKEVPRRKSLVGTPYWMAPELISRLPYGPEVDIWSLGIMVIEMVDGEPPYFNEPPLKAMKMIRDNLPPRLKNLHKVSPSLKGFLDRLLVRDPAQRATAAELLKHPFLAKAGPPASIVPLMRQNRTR", "test": "biochemical", "settings": "read-out: Percentages of residual activities of the kinase reaction", "description": "as §1"}, "[26]": {"molecular_target": "PAK5 (Homo sapiens, UniProt Q9P286)", "test": "biochemical", "settings": "read-out: Percentages of residual activities of the kinase reaction", "description": "as §1"}, "[27]": {"molecular_target": "PAK6 (Homo sapiens, UniProt Q9NQU5)", "test": "biochemical", "settings": "read-out: Percentages of residual activities of the kinase reaction", "description": "as §1"}, "[28]": {"molecular_target": "PDK1 (Homo sapiens, UniProt O15530)", "test": "biochemical", "settings": "read-out: Percentages of residual activities of the kinase reaction", "description": "as §1"}, "[29]": {"molecular_target": "PKCz (Homo sapiens, UniProt Q05513)", "test": "biochemical", "settings": "read-out: Percentages of residual activities of the kinase reaction", "description": "as §1"}, "[30]": {"molecular_target": "PKCγ (Homo sapiens, UniProt P05129)", "test": "biochemical", "settings": "read-out: Percentages of residual activities of the kinase reaction", "description": "as §1"}, "[31]": {"molecular_target": "ROCK 2 (Homo sapiens, UniProt O75116)", "test": "biochemical", "settings": "read-out: Percentages of residual activities of the kinase reaction", "description": "as §1"}, "[32]": {"molecular_target": "SGK1 (Homo sapiens, UniProt O00141)", "test": "biochemical", "settings": "read-out: Percentages of residual activities of the kinase reaction", "description": "as §1"}, "[33]": {"molecular_target": "STK33 (Homo sapiens, UniProt Q9BYT3)", "test": "biochemical", "settings": "read-out: Percentages of residual activities of the kinase reaction", "description": "as §1"}, "[34]": {"molecular_target": "TAO1 (Homo sapiens, UniProt Q7L7X3)", "test": "biochemical", "settings": "read-out: Percentages of residual activities of the kinase reaction", "description": "as §1"}, "[35]": {"molecular_target": "TIE2 (Homo sapiens, UniProt Q02763)", "test": "biochemical", "settings": "read-out: Percentages of residual activities of the kinase reaction", "description": "as §1"}, "[36]": {"molecular_target": "TrkA (Homo sapiens, UniProt P04629)", "test": "biochemical", "settings": "read-out: Percentages of residual activities of the kinase reaction", "description": "as §1"}, "[37]": {"test_system": "AMPK", "test": "PK selectivity profiling, residual kinase activity", "assay_type": "biochemical", "settings": "1 μM ARC-669, ATP close to Km"}, "[38]": {"test_system": "CK1", "test": "PK selectivity profiling, residual kinase activity", "assay_type": "biochemical", "settings": "1 μM ARC-669, ATP close to Km"}, "[39]": {"test_system": "CK2", "test": "PK selectivity profiling, residual kinase activity", "assay_type": "biochemical", "settings": "1 μM ARC-669, ATP close to Km"}, "[40]": {"molecular_target": "T1, SmMLCK (Homo sapiens, UniProt Q15746)", "T1 construct": "Division of Signal Transduction Therapy, University of Dundee (contract testing)", "test": "PK selectivity profiling, residual kinase activity", "assay_type": "biochemical", "settings": "1 μM ARC-669, ATP close to Km, read-out: Percentages of residual activities of the kinase reaction"}, "[41]": {"test_system": "PHK", "test": "PK selectivity profiling, residual kinase activity", "assay_type": "biochemical", "settings": "1 μM ARC-669, ATP close to Km"}}}
{"smiles": "CN(C)c1ccc2c(c1)Oc1cc(N(C)C)ccc1C21OC(=O)c2cc(C(=O)NCCCC[C@@H](NC(=O)[C@@H](CCCNC(=N)N)NC(=O)[C@@H](CCCNC(=N)N)NC(=O)[C@@H](CCCNC(=N)N)NC(=O)[C@@H](CCCNC(=N)N)NC(=O)[C@@H](CCCNC(=N)N)NC(=O)[C@@H](CCCNC(=N)N)NC(=O)CCCCCNC(=O)[C@@H](CCCNC(=N)N)NC(=O)CCCCCNC(=O)c3ccc(-c4ccnc(N)n4)s3)C(N)=O)ccc21", "note": "[ARC-669]", "values": [{"measurement": "remaining activity at 1 µM", "setting": "[1]", "result": 88, "unit": "%"}, {"measurement": "remaining activity at 1 µM", "setting": "[2]", "result": 74, "unit": "%"}, {"measurement": "remaining activity at 1 µM", "setting": "[3]", "result": 44, "unit": "%"}, {"measurement": "remaining activity at 1 µM", "setting": "[4]", "result": 77, "unit": "%"}, {"measurement": "remaining activity at 1 µM", "setting": "[5]", "result": 36, "unit": "%"}, {"measurement": "remaining activity at 1 µM", "setting": "[6]", "result": 41, "unit": "%"}, {"measurement": "remaining activity at 1 µM", "setting": "[7]", "result": 78, "unit": "%"}, {"measurement": "remaining activity at 1 µM", "setting": "[8]", "result": 29, "unit": "%"}, {"measurement": "remaining activity at 1 µM", "setting": "[9]", "result": 27, "unit": "%"}, {"measurement": "remaining activity at 1 µM", "setting": "[10]", "result": 65, "unit": "%"}, {"measurement": "remaining activity at 1 µM", "setting": "[11]", "result": 98, "unit": "%"}, {"measurement": "remaining activity at 1 µM", "setting": "[12]", "result": 54, "unit": "%"}, {"measurement": "remaining activity at 1 µM", "setting": "[13]", "result": 82, "unit": "%"}, {"measurement": "remaining activity at 1 µM", "setting": "[14]", "result": 63, "unit": "%"}, {"measurement": "remaining activity at 1 µM", "setting": "[15]", "result": 38, "unit": "%"}, {"measurement": "remaining activity at 1 µM", "setting": "[16]", "result": 52, "unit": "%"}, {"measurement": "remaining activity at 1 µM", "setting": "[17]", "result": 77, "unit": "%"}, {"measurement": "remaining activity at 1 µM", "setting": "[18]", "result": 86, "unit": "%"}, {"measurement": "remaining activity at 1 µM", "setting": "[19]", "result": 31, "unit": "%"}, {"measurement": "remaining activity at 1 µM", "setting": "[20]", "result": 51, "unit": "%"}, {"measurement": "remaining activity at 1 µM", "setting": "[21]", "result": 69, "unit": "%"}, {"measurement": "remaining activity at 1 µM", "setting": "[22]", "result": 70, "unit": "%"}, {"measurement": "remaining activity at 1 µM", "setting": "[23]", "result": 97, "unit": "%"}, {"measurement": "remaining activity at 1 µM", "setting": "[24]", "result": 55, "unit": "%"}, {"measurement": "remaining activity at 1 µM", "setting": "[25]", "result": 32, "unit": "%"}, {"measurement": "remaining activity at 1 µM", "setting": "[26]", "result": 18, "unit": "%"}, {"measurement": "remaining activity at 1 µM", "setting": "[27]", "result": 35, "unit": "%"}, {"measurement": "remaining activity at 1 µM", "setting": "[28]", "result": 88, "unit": "%"}, {"measurement": "remaining activity at 1 µM", "setting": "[29]", "result": 10, "unit": "%"}, {"measurement": "remaining activity at 1 µM", "setting": "[30]", "result": 13, "unit": "%"}, {"measurement": "remaining activity at 1 µM", "setting": "[31]", "result": 10, "unit": "%"}, {"measurement": "remaining activity at 1 µM", "setting": "[32]", "result": 8, "unit": "%"}, {"measurement": "remaining activity at 1 µM", "setting": "[33]", "result": 76, "unit": "%"}, {"measurement": "remaining activity at 1 µM", "setting": "[34]", "result": 94, "unit": "%"}, {"measurement": "remaining activity at 1 µM", "setting": "[35]", "result": 86, "unit": "%"}, {"measurement": "remaining activity at 1 µM", "setting": "[36]", "result": 101, "unit": "%"}, {"measurement": "Percentages of residual activities of the kinase reaction", "setting": "[37]", "result": 36, "unit": "%"}, {"measurement": "Percentages of residual activities of the kinase reaction", "setting": "[38]", "result": 72, "unit": "%"}, {"measurement": "Percentages of residual activities of the kinase reaction", "setting": "[39]", "result": 7, "unit": "%"}, {"measurement": "remaining activity at 1 µM", "setting": "[40]", "result": 46, "unit": "%"}, {"measurement": "Percentages of residual activities of the kinase reaction", "setting": "[41]", "result": 32, "unit": "%"}]}
